B1: Fab fragment of mAb 15B6 (Fab, V domains shown)
VH: EVQLQQSGPVLVKPGASVKISCKASGYSFTGYYMHWVRQSNGKSLEWIGRINPYTGVPSYKHNFKDKASLTVDKSSSTAYMELHSLTSEDSAVYYCARELGGYWGQGTTLTVSS
VL: QAVVTQESALTTSPGETVTLTCRSSTGAVTTGNYPNWVQEKPDHLFTGLIAGTNNRAPGVPARFSGSLIGDKAALTITGAQTEDEAIYFCALWFSSHWVFGGGTKLTVL
B2: monoclonal antibody (mAb) 15B6 (antibody, V domains shown)
VH: EVQLQQSGPVLVKPGASVKISCKASGYSFTGYYMHWVRQSLVKRLEWIGRINPYTGVPSYKHNFKDKASLTVDKSSSTAYMELHSLTSEDSAVYYCARELGGYWGQGTTLTVSS
VL: QAVVTQESALTTSPGETVTLTCRSSTGAVTTGNYPNWVQEKPDHLFTGLIAGTNNRAPGVPARFSGSLIGDKAALTITGAQTEDEAIYFCALWFSSHWVFGGGTKLTVL

Experiments:
MSLN 296 to 591 = MSLN 296 to 591 (Homo sapiens (Human)., UniProt Q13421-3); assay: BLI
[1] = target: T1, 17-residue MSLN C terminus peptide (human); assay: crystal structure
T1 chain: IPNGYLVLDLSMQEALS

MSLN–585-his = MSLN–585-his (Homo sapiens (Human)., UniProt Q13421-3); assay: ELISA

Binder	binding result (MSLN 296 to 591)	binding result [1]	binding result (MSLN–585-his)
B1	no binding	binds	–
B2	–	–	no binding

Reference: paper PMC9171807 (Proceedings of the National Academy of Sciences of the …, 2022)
